Results as given in the nanobody polyreactivity screen of Harvey et al. (2022).

Assay: yeast display, Sf9 membrane polyspecificity reagent, FACS + sequencing; frameworks hold sequencing errors
Procedure, shortened: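 A synthetic nanobody library was expressed on Saccharomyces cerevisiae BJ5465 by galactose induction for 36–48 hours. The library was stained for 1 hour at 4 °C with 10% biotinylated, detergent-solubilized Sf9 membrane reagent and enriched with streptavidin microbeads before FACS. Low and high (top ~1%) gates were set on anti-HA fluorescence for expression and streptavidin fluorescence for reagent binding, and each polyreactivity label reflects the gate of origin.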

Sequence	polyreactivity (PSR sort gate)
QVQLVESGGGLVQAGGSLRLSCAASGRIIYYNAMGWYRQAPGKERDLVARISSGGSTNYADSVKGRFTFSRDNAKNTVYLQMISLKPEDTAGDYCAVAKGGLAWGVGRAGRYDYWGQGTQVTLSS	low polyreactivity
QVQLVESGGGLVQAGGSLRLSCAASGRILDINTMRGYRHPPGKERELVAAITWSGVSTYYADSVKGRFTISRDNAKNTVYLQMNSLKPEDTAVYYCAARPYYTWRYLPTNSGDYWGQGTQETVSS	low polyreactivity
QVQLVESGGGLVQAGGSLRLSCAASGRILDYNAMGWYRPAPGKERELVAAITRRGGSTYYADSVKGRFTISRDNAKNTVYLQMNSLKPEDTAVYYCNARWSTTAHTRFGYWGQGTQVTVSS	low polyreactivity
QVQLVESGGGLVQAGGSLRLSCAASGRILDYNAMGWYRQAPGKERELVAAITYTGGDTYYADSVKGRFTISRDNAKNTVYLQMNSLKPEDTAVYYCSADFGPYYRFDYWGQGTQVTVSS	low polyreactivity
QVQLVESGGGLVQAGGSLRLSCAASGRILFGYAMGWYRQAPGKERELVADITSTGSTNYADSVKGRFTISRDNAKNTVYLQMNSLKPEDTAVYYCNARRESYYQRYRVDYWGQGTQVNVSS	low polyreactivity
QVQLVESGGGLVQAGGSLRLSCAASGRILFRYGMGWYRQAPGKERELVARISWSGGNTHYADSVKGRFTISRDNAKNTVYLQMNSLKPDDTAVYYCNAYYTYWYPRYDYWGQGTQVTVSS	low polyreactivity
QVQLVESGGGLVQAGGSLRLSCAASGRILGDNVMGWYRQAPGKERELVAAISSGSGSTYYADSVKGRFTISRDNAKNTVYLQMNSLKPEDTAVYYCAAGPYIYPRYDYWGQGTQVTVSS	low polyreactivity
QVQLVESGGGLVQAGGSLRLSCAASGRILGDYAMGWYRQAPGKEREFVAASDYNGGSTNYADSVKGRFTISRDNAKNTVYLQMNSLKPEETAVYYCAAPGFPSRNGFGYWGQGTQVTVSS	low polyreactivity
QVQLVESGGGLVQAGGSLRLSCAASGRILGKNAMGWYRQAPRKERELVAAISGRGDRTHYADSVKGRFTISRDNAKNTVYLHMNSLKPEDTAVYYCAKDHHPPAKGQSVSLGYDYWGQGTQVTVSS	low polyreactivity
QVQLVESGGGLVQAGGSLRLSCAASGRILHANAMGWYRQAPGKERELVAAITGRGGSTYYADSVKGRFTISRDNAKITVYLQMNSLKPEDTAVYYCAARVKQAGYRMDYWVQGTQVTVSS	high polyreactivity
QVQLVESGGGLVQAGGSLRLSCAASGRILHGYAMGWYRQAPGKERELVAAITSSGGRTYYADSVKGRFTISRDNAKNTVYLQMNSLKPEDTAVYYCAADRPAYRTGDSKYDYWGQGTQVTVSS	low polyreactivity
QVQLVESGGGLVQAGGSLRLSCAASGRILIRNAMGWYRQAPGKERELVAAINRGGGSTYYADSVKGRFTISRDNAKNTVYLQMNSLKPEDTAVYYCAADRKAGYSRVDGDYWGQGTQVTVSS	low polyreactivity
QVQLVESGGGLVQAGGSLRLSCAASGRILIWYAMGWYRQAPGKERELVAAINWSGSSTSYADSVKGRFTISRDNAKNTVYLQMNSLKPEDTAVYYCAAGRLTTYTPGNRYYYWGQGTQVTVSS	high polyreactivity
QVQLVESGGGLVQAGGSLRLSCAASGRILKYNALGWYRQAPGKERELVAAISYRGGSTYYADSVKGRFTISRDNAKNTVYLQMNSLKPEDTAVYYCNAGGGILNGPLFDYWGQGTQVTVSS	low polyreactivity
QVQLVESGGGLVQAGGSLRLSCAASGRILLHYAMGWYRQAPGKERELVAAITSTGGTTYYADSVKGRFTISRDYAKNTFYLQMNSLKPEDTAVYYCAAKRQDSWGGTYGYWGQGTQVTVSS	low polyreactivity
QVQLVESGGGLVQAGGSLRLSCAASGRILLTYAMGWYRPAPGKERELVAAISSDSRTYYADSVKGRFTISRDNAQNTVYLQMNSLKPEDTAVYYCVRRRYKYDYWGQGTQVTVSS	low polyreactivity
QVQLVESGGGLVQAGGSLRLSCAASGRILLTYAMGWYRQAPGKERELVAAISSDSRTYYADSVKGRFTISRDNAKNTVYLQMNSLKPEDTAVYYCVRRRYKYDYWGQGTQVTVSS	low polyreactivity
QVQLVESGGGLVQAGGSLRLSCAASGRILPLYAMGWYRQAPGKDRELVALIDSGGSTNYADSVKGRFTISRDNAKNTVYLQMNSLKPEDTAVYYCAAVVTAQAYAYFTYGYDYWGQGTQVTVSS	low polyreactivity
QVQLVESGGGLVQAGGSLRLSCAASGRILPLYAMGWYRQAPGKERELVARIDSGGSTNYADSVKGRFTISRDNAKNTVYLQMNSLKPEDTAVYYCAAVVTAQAYAYFTYGYDYWGQGTQVTVSS	low polyreactivity
QVQLVESGGGLVQAGGSLRLSCAASGRILPRNAMGRYRQAPGKEREVVAGIYSDGSTNYADSVKGRFTISRDNAKNTVYLQMKSLKPEETAVYYCAKQFSSYQYFIILISPGDYWGQGTQVTVSS	low polyreactivity
QVQLVESGGGLVQAGGSLRLSCAASGRILPSNAMGWYRQAPGKERELVAGITSGGSTDYADSVKGRFTISRDNAKNTVFLQMNSLKPEDTAVYYCNKPFPYYPDGPNGYDYWGQGTQVTVSS	low polyreactivity
QVQLVESGGGLVQAGGSLRLSCAASGRILPVYAMGWYRQAPGKERELVAAINDSGTNTNYADSVKGRFTISRDNAKNTVYLHMNSLKPEDTAVYYCAASSGPRQGYSYRPHKSYGSWGQGTQVTVSS	low polyreactivity

Sequence	polyreactivity (PSR sort gate)
QVQLVESGGGLVQAGGSLRLSCAASGRILPYYAMGWYRQAPGKERELVAAITSGGSTYYADSVKGRFTISRDNAKNTVSLQMNSLKPEDTAVYYCATDVDKSLYDYWGQGTQVTVSS	low polyreactivity
QVQLVESGGGLVQAGGSLRLSCAASGRILQFNAMGWYRQATGKERELVAAISTSGGRTYYADSVKGRFTISRDNAKNTVYLQMISLKPEDTAVYDCNAVAYKLMGYWGQGTQVTVSS	high polyreactivity
QVQLVESGGGLVQAGGSLRLSCAASGRILQVEYAMGWNIQAPGKERELVAAITESDGSTSYADSVKGRFTISRDNAKNTVYLQMNSLKPEDTAVYYCNVVRGYPNGGYDYWGQGTQVTVSS	low polyreactivity
QVQLVESGGGLVQAGGSLRLSCAASGRILRDYDMGWYRQATGKERELVAAINWSDGSTYYADSVKGRFTISRDNAKNTVYLQMNSLKPEDTAVYYCAASRWRPLERGTTWLNDYWGQGTQVTVSS	low polyreactivity
QVQLVESGGGLVQAGGSLRLSCAASGRILRGYVMGWSRQAPGKERELVATITGRGGSTYYADSVKGRFTISRDNAKNTVYLQMNSLKPEDTAVYYCNKDGYPYFGRSEYWGQGTQVTVSS	low polyreactivity
QVQLVESGGGLVQAGGSLRLSCAASGRILRTNAMGWYRQAPGKERELVAAISSDGSTYYADSVKGRFTISRDNAKNTVYLQMNSLKPEDTAVYYCAARLFYRGPRFDYWGQGTQVTVSS	low polyreactivity
QVQLVESGGGLVQAGGSLRLSCAASGRILRYNAMGWYRQAPGKERELVATITRSAGRTYSADSVKGRFTISRDNAKNTVYLQMNSLKPEDTAVYYCAKDTDISTLHSKGRAKSRYDYWGQGTQVTVSS	low polyreactivity
QVQLVESGGGLVQAGGSLRLSCAASGRILRYYAMGGYRQAPGKERELVAAITSGGSTTYYADSVKGRFTISRDNAKNTVYLQMNSLKPEDTAVYYCAADRARSSAKYDYWGQGTQVTVSS	low polyreactivity
QVQLVESGGGLVQAGGSLRLSCAASGRILSLYAMGWYRPPPGKERELVAAIRWSGSRTYYADSVKGRFTISRDNAKNTVYLQMNSLKPEDTAVYYCNAWYRLLRSSDYYWGQGTQVTVSS	high polyreactivity
QVQLVESGGGLVQAGGSLRLSCAASGRILTLYAMGWYRQAPGKERELVAGINRGDVSTYYADSVKGRFTISRDNAKNSVYLQMNSLKPEDTAVYYCYADPPPDYYPDKDNYWGQGSQVTVSS	low polyreactivity
QVQLVESGGGLVQAGGSLRLSCAASGRILTSNAMGWYRQAPGTEMELVAAISWSGGSTYYADSVKGRFTISRDNAKNTVYLQMNSLKPEDTAVYYCAAVSYYASDYRYDYWGQGTQVTVSS	low polyreactivity
QVQLVESGGGLVQAGGSLRLSCAASGRILTTNAMGWYRQAPGKERELVAAITRSGGRTYYADSVKGRFTISRDNAKNTVYLQMNSLKPEDTAVYYCAAATSPGIYDYWGQGTQVTVSS	high polyreactivity
QVQLVESGGGLVQAGGSLRLSCAASGRILVHNAMGWYRQAPGKERELVAVITARGASTYYADSVKGRFTISRDNAKNTVYLQMNSLKPEDTAVYYCATDKRPKYYNQYDYWGQGTQVTVSS	low polyreactivity
QVQLVESGGGLVQAGGSLRLSCAASGRILVLNAMGWYRQAPGKERELVADITSGGSTYYADSVKGRFTISRDNAKNTVYLQMNSLKPEDTAVYYCAADWNTYPDYQQSYFVSYEYNYWGQGTQVTVSS	low polyreactivity
QVQLVESGGGLVQAGGSLRLSCAASGRILVRNAMGWYRQAPGQERELVAAITRTGASTYYADSVKGRFTISRDNPKNTVYLQMNSLKPEDTAVYYCAAVWGLPYWVYRYDYWGQGNQVTVSS	high polyreactivity
QVQLVESGGGLVQAGGSLRLSCAASGRILWWYAMAWYRQAPGKERELVATITYSGGSTYADSVKGRFTISRDNAKNTVYLQMNSLKPVDTAVYYCAARLALYYGKSVYWGQGTQVTVSS	high polyreactivity
QVQLVESGGGLVQAGGSLRLSCAASGRILWYYAMGWYRQAPGKERELVASISWSGGRTYYADSVKGRFTISRDNAKNTVYLQMNSLKPEDTAVYYCAAQLTRWRKPGDMEYWGQGTQVTVSS	high polyreactivity
QVQLVESGGGLVQAGGSLRLSCAASGRILYDYDMGWYRQAPGKERELVATISRGGGTNYADSVKGRFTISRDNAKNNVYLQMNSLKPEDTAVYYCAAYYSSDGDYWGQGTQVTVSS	low polyreactivity
QVQLVESGGGLVQAGGSLRLSCAASGRILYGYTMGWYRQAPGKERELVAAISSNGDSTYYADSVKGRFTISRDNAKNTVYLQLNSLKPEDTAVYYCAAVSIGPGEYDYWGQGTQVTVSS	low polyreactivity
QVQLVESGGGLVQAGGSLRLSCAASGRILYSYAMGWYRQAPGKERELVAAISSTGSTYYADSVKGRFTISRDNAKNTVYLQMNSLKPEDTAVYYCAATFYPYQVHHYYYWGKGTQVTVSS	low polyreactivity
QVQLVESGGGLVQAGGSLRLSCAASGRILYSYAMGWYRQAPGKERELVADITQRGGTTDYADSVKGRFTISRDNAKTTVYVQMNSLKPEDTAVYYCNANSYRSYGGRGGVEYDYWGEGTQVTVSS	low polyreactivity
